Experimental data reported in patent US5792641.

Assays:
[1] = biological target: Variant I: V221S+N222S+Q223T (Humicola insolens)
[2] = biological target: Variant II: V240P+Q241P (Humicola insolens)
[3] = biological target: Humicola insolens 43 kD endoglucanase (Humicola insolens)

Residual Activity, % DAA (25° C., 5d) after storage in liquid detergent with Savinase protease [1]: 83%
Residual Activity, % DAA (25° C., 5d) after storage in liquid detergent with Savinase protease [2]: 81%
Residual Activity, % DAA (25° C., 5d) after storage in liquid detergent with Savinase protease [3]: 63%
Substance: Savinase® protease (from UniProt P29600) (enzyme)
